According to patent EP1248849B1:

Molecular target: mouse LSR (mouse) (UniProt Q99KG5)
Experiment: cell-based or functional assay

UniProt Q99KG5, sequence (Q99KG5 36-594): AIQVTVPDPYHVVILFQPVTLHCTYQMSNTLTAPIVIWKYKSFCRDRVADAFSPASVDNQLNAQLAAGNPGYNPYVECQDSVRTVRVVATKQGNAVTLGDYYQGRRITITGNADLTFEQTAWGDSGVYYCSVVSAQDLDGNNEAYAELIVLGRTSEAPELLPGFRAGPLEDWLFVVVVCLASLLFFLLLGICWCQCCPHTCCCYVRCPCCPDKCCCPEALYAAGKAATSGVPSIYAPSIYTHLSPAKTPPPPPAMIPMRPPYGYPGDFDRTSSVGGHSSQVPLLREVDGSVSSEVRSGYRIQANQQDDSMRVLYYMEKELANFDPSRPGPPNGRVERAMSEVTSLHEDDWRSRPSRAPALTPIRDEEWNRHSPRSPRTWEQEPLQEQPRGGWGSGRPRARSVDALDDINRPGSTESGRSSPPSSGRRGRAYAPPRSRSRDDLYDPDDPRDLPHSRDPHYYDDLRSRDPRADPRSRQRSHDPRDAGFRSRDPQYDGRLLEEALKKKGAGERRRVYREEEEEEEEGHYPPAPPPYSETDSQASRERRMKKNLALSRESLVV

## 125I-mouse leptin (from UniProt P41160 22-167) (ligand)
  leptin uptake in a liver cell line (BPRCL), gOBG3 against OBG3: > 30%
